Where a chain is given by its changes, count along the chain named. Names and notes keep the numbering of the source.
What was measured:
[1] = biological target: the molecule itself; assay: PORT-HS-AFM; CrSAS-6_NL adsorbed on mica, 11-16 nM (equilibrium) or 44 nM (assembly reaction); 150 mM KCl, 20 mM Tris-HCl pH 8.0; monobodies at 6.8 µM, 14.5 µM and 12.9 µM
[2] = biological target: the molecule itself; assay: crystal structure; CrSAS-6 combined with a 2x molar excess of monobody, complex purified by SEC; sitting drop vapor diffusion at 18 °C

B1: CrSAS-6_NL, N-terminal head domain and the entire coiled-coil of Chlamydomonas reinhardtii SAS-6 (domain or fragment, UniProt A9CQL4 1-503, looked up)
chain: MPLLLDDGDPKAQTGFDLSTATTLFWRPVPVHVKQQDREDVLEELTFRILTGVAKQNHNLRILRIHISSDSDLFFLHTLEVSEEDFQSLKNDQGILVDFASFPGKIISLLEKCILAQPGDSPRFQAVLTIRGGESVFKIVEINDFKQLPHITLAFRPGNDSVVKQFLAFRLSEVKGTCHDLSDDLSRTRDDRDSMVAQLAQCRQQLAQLREQYDKHLLEVQAQAKTQQASAHEERIREKSQLKDQFEKERGEMEGRYRDQIAALNTRLGELDTENRKLREVKYELDTKVSELSHKLGSSEGSNRSLEEETARLRSLNQQLSSSKHELEIQLNEAKAKVLALDEKAQSQGDVIEQQRGRLRDMEAALRQTEQRCADLRDTLASAEGRAKEAQAEVLKGNQAIEKLTNDLRLAKEKTKRKAAIILRQEEELQEREQSLANATRDVGVLGQQAESLRKDVASLHSENDSLRSKLEDSKQQLQSNEQMIRWLNQQVTEAQLHASGAT
notes: SAS-6 of Chlamydomonas reinhardtii, N-terminal head domain and entire coiled-coil, residues 1-503; pFLOAT2-His vector, PreScission Protease site after the His tag; homodimers that assemble into ring polymers; source: E. coli BL21(DE3), purified (HisTrap, SEC)
binding result [1]: binds

B2: CrSAS-6_N, N-terminal globular domain of Chlamydomonas reinhardtii SAS-6 (domain or fragment, UniProt A9CQL4 1-159, looked up)
chain: MPLLLDDGDPKAQTGFDLSTATTLFWRPVPVHVKQQDREDVLEELTFRILTGVAKQNHNLRILRIHISSDSDLFFLHTLEVSEEDFQSLKNDQGILVDFASFPGKIISLLEKCILAQPGDSPRFQAVLTIRGGESVFKIVEINDFKQLPHITLAFRPGN
notes: SAS-6 of Chlamydomonas reinhardtii, N-terminal globular head domain, residues 1-159 (the methods list the two ranges in the reverse order of the two names); source: E. coli BL21(DE3), purified (HisTrap, tag cleavage by protease, SEC); not shown: His6, N-terminal, cleaved; AVI-tag, N-terminal, cleaved
binding result [2]: binds

B3: CrSAS-6_6HR-[F145E] (domain or fragment, Chlamydomonas reinhardtii, UniProt A9CQL4 1-226, looked up)
chain: MPLLLDDGDPKAQTGFDLSTATTLFWRPVPVHVKQQDREDVLEELTFRILTGVAKQNHNLRILRIHISSDSDLFFLHTLEVSEEDFQSLKNDQGILVDFASFPGKIISLLEKCILAQPGDSPRFQAVLTIRGGESVFKIVEINDEKQLPHITLAFRPGNDSVVKQFLAFRLSEVKGTCHDLSDDLSRTRDDRDSMVAQLAQCRQQLAQLREQYDKHLLEVQAQAKT
notes: SAS-6 of Chlamydomonas reinhardtii, residues 1-226 (limits as for CrSAS-6_6HR) with F145E; arranged as homodimers in the crystal; also called CrSAS-6_6HR harboring the mutation F145E; source: E. coli BL21(DE3), purified (HisTrap, tag cleavage by protease, SEC); not shown: His6, N-terminal, cleaved; AVI-tag, N-terminal, cleaved
binding result [2]: binds

B4: CrSAS-6_6HR, N-terminal domain and six heptad repeats of the coiled-coil of Chlamydomonas reinhardtii SAS-6 (domain or fragment, UniProt A9CQL4 1-226, looked up)
chain: B3 chain with E145F
notes: homodimer through the coiled-coil; source: E. coli BL21(DE3), purified (HisTrap, tag cleavage by protease, SEC); not shown: His6, N-terminal, cleaved; AVI-tag, N-terminal, cleaved
binding result [2]: binds
